US20200323888A1, “INHIBITORS” (VESTLANDETS INNOVASJONSSELSKAP AS, priority 2017, published 2020)
Blank lines part the entries; values can stand above or below the molecule they belong to. Primed or numbered codes have the meaning given here. Ends that are not written are not given here. Ac′ = acetamide linker; CoA = coenzyme A

Assays:
[1] = biological target: T1, NatA (Homo sapiens, UniProt P41227); conditions: NatA complex; Foyn et al. 2013; cited from earlier work
T1 construct: endogenous in cells
T1 sequence (P41227 1-235): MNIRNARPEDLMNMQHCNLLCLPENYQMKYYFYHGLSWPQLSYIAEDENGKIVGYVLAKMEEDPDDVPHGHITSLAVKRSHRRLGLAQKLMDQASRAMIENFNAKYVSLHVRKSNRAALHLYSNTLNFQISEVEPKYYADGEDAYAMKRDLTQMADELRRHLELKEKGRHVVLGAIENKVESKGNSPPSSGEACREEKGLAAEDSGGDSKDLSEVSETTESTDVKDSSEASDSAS
T1 sequence (Q9BXJ9 1-866 partner): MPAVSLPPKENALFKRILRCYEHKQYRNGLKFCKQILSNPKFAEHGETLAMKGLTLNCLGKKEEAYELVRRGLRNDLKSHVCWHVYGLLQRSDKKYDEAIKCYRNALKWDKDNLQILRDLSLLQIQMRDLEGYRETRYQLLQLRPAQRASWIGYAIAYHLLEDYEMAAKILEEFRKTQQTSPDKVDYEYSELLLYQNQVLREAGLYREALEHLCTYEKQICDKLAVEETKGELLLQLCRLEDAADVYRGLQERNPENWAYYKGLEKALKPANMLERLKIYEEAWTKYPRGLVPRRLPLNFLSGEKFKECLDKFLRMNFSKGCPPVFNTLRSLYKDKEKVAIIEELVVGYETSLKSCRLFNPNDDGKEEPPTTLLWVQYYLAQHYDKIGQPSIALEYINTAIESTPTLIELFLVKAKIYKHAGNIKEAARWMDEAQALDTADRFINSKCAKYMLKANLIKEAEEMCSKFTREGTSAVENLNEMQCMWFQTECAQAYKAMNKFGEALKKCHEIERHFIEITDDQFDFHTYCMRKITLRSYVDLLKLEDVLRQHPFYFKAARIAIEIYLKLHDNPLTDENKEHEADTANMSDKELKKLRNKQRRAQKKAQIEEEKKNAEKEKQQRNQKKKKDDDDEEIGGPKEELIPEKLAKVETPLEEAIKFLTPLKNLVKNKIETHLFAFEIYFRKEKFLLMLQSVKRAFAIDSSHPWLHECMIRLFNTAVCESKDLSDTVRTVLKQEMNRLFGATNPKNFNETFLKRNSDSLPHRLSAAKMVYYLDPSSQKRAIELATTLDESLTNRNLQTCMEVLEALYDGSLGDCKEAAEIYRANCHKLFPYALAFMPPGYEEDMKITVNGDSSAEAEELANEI

[2] = biological target: T2, NatA complex (Naa15-Naa10) (human, UniProt P41227 1-235; Q9BXJ9 1-866); assay: cell-based or functional assay
T2 sequence (looked up) 1: T1 sequence (P41227 1-235)
T2 sequence (looked up) 2: T1 sequence (Q9BXJ9 1-866 partner)

[3] = biological target: T2, NatA complex (Naa15-Naa10); assay: comparison of Ki values from Nt-acetylation inhibition assays
[4] = biological target: Naa30 (UniProt Q147X3); assay: Ki calculated by Cheng-Prusoff from IC50 of Nt-acetylation inhibition assay
[5] = biological target: Naa40 (Homo sapiens, UniProt Q86UY6); assay: as above
[6] = biological target: Naa50 (human) (UniProt Q9GZZ1); assay: as above
[7] = biological target: Naa60 (Homo sapiens, UniProt Q9H7X0); assay: as above
[8] = biological target: NatB (Homo sapiens, UniProt P61599); assay: as above
[9] = biological target: T2, NatA complex (Naa15-Naa10); assay: as above
[10] = biological target: T3, Naa10 (monomeric) (human, UniProt P41227 1-235, limits assumed); assay: as above
T3 construct: also called hNaa10; Ard1
T3 sequence (looked up): T1 sequence (P41227 1-235)

[11] = biological target: T4, Naa80 (Homo sapiens, UniProt Q93015); assay: Nt-acetylation inhibitor assay for Naa80; format: biochemical; conditions: Naa80
T4 construct: The PCR product containing the CDS was inserted into the TOPO TA vector; made in house; host or cells: E. coli BL21 Star (DE3)
T4 sequence (Q93015 1-308 isoform Q93015-2): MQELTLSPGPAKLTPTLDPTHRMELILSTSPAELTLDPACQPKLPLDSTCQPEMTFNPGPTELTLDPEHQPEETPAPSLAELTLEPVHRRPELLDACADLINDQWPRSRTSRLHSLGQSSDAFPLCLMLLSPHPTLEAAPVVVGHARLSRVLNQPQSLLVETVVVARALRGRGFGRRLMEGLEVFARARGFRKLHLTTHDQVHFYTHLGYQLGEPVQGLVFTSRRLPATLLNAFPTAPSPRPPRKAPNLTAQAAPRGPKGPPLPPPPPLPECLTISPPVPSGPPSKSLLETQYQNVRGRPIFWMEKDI
Description: FIG. 10: (A) IC50 values for inhibitors measured in an Nt-acetylation inhibitor assay for Naa80. (B) Ki-values for CoA-Ac-DDDI-NH2 (SEQ ID NO: 6) for different human NATs measured in an Nt-acetylation inhibitor assay. All reactions were performed at least three times and in triplicate; errors bars represent standard deviation of each measurement.
The IC50 values for these compounds were tested as described in Foyn H, et al. (2013) “Design, Synthesis, and Kinetic Characterization of Protein N-Terminal Acetyltransferase Inhibitors”. ACS Chem Biol 8:1121-1127; and Foyn H, et al. (2017) “DTNB-Based quantification of in vitro enzymatic N-terminal acetyltransferase activity”, Methods Mol. Biol. 1574:9-15. Briefly, a colorimetric acetylation assay, 5,5′-dithiobis-(2-nitrobenzoic acid) (DTNB) assay was used to measure the catalytic activity of NATs after incubation with NAT inhibitors. In the DTNB assay, thiols present in the enzymatic product, CoA, cleaves DTNB and produces 2-nitro-5-thiobenzoate (NTB-), which absorbs light with a wavelength of 412 nm. NTB- forms in a 1:1 molar ratio to the thiol groups present in the sample. Therefore, NTB- was quantified by measuring the absorbance at 412 nm and indirectly measures peptide Nt-acetylation. […] After 30 min-60 min incubation at 37° C., the enzyme activity was quenched with quenching buffer (3.2 M guanidinium-HCl, 100 mM sodium phosphate dibasic pH 6.8). Triplicates were run for all positive samples, while negative controls were duplicated. As a negative control, reactions without enzyme were incubated at 37° C. before the reaction was quenched and added enzyme. In order to measure CoA production, 2 mM DTNB (dissolved in 100 mM sodium phosphate dibasic pH 6.8 and 10 mM EDTA) was added to the quenched reaction and the absorbance at 412 nm was measured with a spectrophotometer (Epoc). Background absorbance (determined in negative controls) was subtracted from the absorbance determined in each individual reaction. Thiophenolate production was quantified assuming ε=13.7×103 M−1 cm−1. For NatA and NatB enzyme complex inhibition, immunoprecipitation was performed using Naa15 ab (custom made, Arnesen T, Anderson D, Baldersheim C, Lanotte M, Varhaug J E, Lillehaug J R. (2005) Identification and characterization of the human ARD1-NATH protein acetyltransferase complex. Biochemical J 386(Pt 3):433-43.) or Naa20 ab (Nat5, abnova) respectively and protein A/G magnetic agarose beads (Millipore). A similar Nt-acetylation reaction was performed as previously described and the enzymatic activity was quenched with a final concentration of 1% TFA and analyzed by HPLC (Evjenth R, Van Damme P, Gevaert K, Arnesen T (2013) HPLC-based Quantification of in vitro N-terminal Acetylation. Methods Mol Biol 981:95-102.).
We then pursued Naa80 bisubstrate analogue inhibitors based on the results of the substrate screening and the sequences of the cellular substrates processed β- and γ-actin. We synthesized bisubstrate conjugates of Coenzyme A coupled to the tetrapeptides MDEL-NH2 (SEQ ID NO: 8), DDDI-NH2 (SEQ ID NO: 6), EEEI-NH2 (SEQ
ID NO: 7), and MLGT-NH2 (SEQ ID NO: 52) via an acetamide (Ac) linker.
The following additional Naa80 bisubstrate analogue inhibitors were produced and tested as described above: […]

[12] = biological target: T5, Naa10 (Homo sapiens, UniProt P41227); conditions: hNaa10, catalytic subunit of NatA; Foyn et al. 2013; cited from earlier work
T5 sequence (P41227 1-235): T1 sequence (P41227 1-235)

[13] = biological target: T4, Naa80; assay: Naa80 substrate screening assay (peptide acetylation by purified Naa80); format: biochemical; conditions: Naa80 mediated acetylation of 24-mer peptide substrates
Description: In order to investigate the in vitro activity of Naa80 further, an enzyme activity screening assay on purified Naa80 was undertaken using a broad substrate library (including amino acids, nucleosides, coenzymes, amines, saccharides, vitamins, antioxidants and peptides) modified from Kuhn et al. (Kuhn et al. (2013) “Broad-substrate screen as a tool to identify substrates for bacterial Gcn5-related N-acetyltransferases with unknown substrate specificity”. Protein Science 22(2):222-230). Among all of the potential substrates tested, only the peptides with N-terminal sequence of MDEL24 (SEQ ID NO: 45), DDDI24 (SEQ ID NO: 41) and EEEI24 (SEQ ID NO: 40) were acetylated, as shown in the following table:
The 24-mer substrate peptides differed in their 7 N-terminal amino acids while the 17 C-terminal residues (RWGRPVGRRRRPVRVYP, SEQ ID NO: 39) were kept constant: EEEI24 (EEEIAAL, SEQ ID NO: 40), DDDI24 (DDDIAAL, SEQ ID NO: 41), MDDD24 (MDDDIAA, SEQ ID NO: 42), SESS24 (SESSSKS, SEQ ID NO: 43), AVFA24 (AVFADLD, SEQ ID NO: 44), MDEL24 (MDELFPL, SEQ ID NO: 45), MELL24 (MELLSPP, SEQ ID NO: 46), MLGT24 (MLGTGPA, SEQ ID NO: 47), MTNK24 (MTNKSSL, SEQ ID NO: 48), MLGP24 (MLGPEGG, SEQ ID NO: 49), MAPL24 (MAPLDLD, SEQ ID NO: 50), MKKS24 (MKKSYSG, SEQ ID NO: 51).
Both MDEL (p65, SEQ ID NO: 8) and MDDD24 (unprocessed β-actin, SEQ ID NO: 42) represent cellular NatB substrates.

[14] = biological target: T4, Naa80; assay: as above; format: biochemical; conditions: linear range of enzyme concentration
[15] = biological target: T6, Naa50 (Homo sapiens, UniProt Q9GZZ1); conditions: NatE/hNaa50; Foyn et al. 2013; cited from earlier work
T6 sequence (Q9GZZ1 1-169): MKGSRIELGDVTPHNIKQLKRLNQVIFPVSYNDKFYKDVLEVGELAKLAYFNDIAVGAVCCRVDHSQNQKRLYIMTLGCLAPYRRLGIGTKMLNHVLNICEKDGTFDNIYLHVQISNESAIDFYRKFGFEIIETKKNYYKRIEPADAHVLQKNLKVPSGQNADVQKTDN

[16] = biological target: T7, MBP-HishNAA80 fusion protein (MBP-Naa80) (human, UniProt Q93015-2 1-308); assay: cell-based or functional assay
T7 sequence (looked up): T4 sequence (Q93015 1-308 isoform Q93015-2)

[17] = biological target: T7, MBP-HishNAA80 fusion protein (MBP-Naa80); assay: cell-based or functional assay; remark: listed apart in the source
[18] = biological target: T3, Naa10 (monomeric); assay: Ki from Nt-acetylation inhibitor assay, panel of human NATs
[19] = biological target: T7, MBP-HishNAA80 fusion protein (MBP-Naa80); assay: as above

Sequence of NatB (P61599 whole entry, the tested form may be a part): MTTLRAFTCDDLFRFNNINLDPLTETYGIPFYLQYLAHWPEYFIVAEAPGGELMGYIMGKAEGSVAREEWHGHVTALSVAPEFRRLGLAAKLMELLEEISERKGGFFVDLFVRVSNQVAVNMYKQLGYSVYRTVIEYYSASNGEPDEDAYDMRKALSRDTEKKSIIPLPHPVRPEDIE
Sequence of Naa30 (Q147X3 whole entry): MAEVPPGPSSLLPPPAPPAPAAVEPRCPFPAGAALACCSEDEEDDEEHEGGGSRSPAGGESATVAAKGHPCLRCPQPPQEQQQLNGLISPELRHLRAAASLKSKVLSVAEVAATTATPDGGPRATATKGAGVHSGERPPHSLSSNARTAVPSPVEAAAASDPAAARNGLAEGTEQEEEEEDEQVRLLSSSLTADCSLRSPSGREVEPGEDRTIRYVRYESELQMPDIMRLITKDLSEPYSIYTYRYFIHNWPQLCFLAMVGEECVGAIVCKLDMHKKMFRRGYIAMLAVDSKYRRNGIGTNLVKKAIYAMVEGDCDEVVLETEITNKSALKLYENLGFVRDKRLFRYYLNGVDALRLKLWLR

Molecule: CC(C)(COP(=O)(O)OP(=O)(O)OCC1OC(n2cnc3c(N)ncnc32)C(O)C1OP(=O)(O)O)C(O)C(=O)NCCC(=O)NCCSCC(=O)N[C@@H](CO)C(=O)N[C@@H](CCC(=O)O)C(=O)N[C@@H](CO)C(=O)N[C@@H](CO)C(N)=O (some centres unmarked) [CoA-Ac-SESS]
IC50 [1]: 15.1 µM

Molecule: CoA-Ac-SSNleP-NH2 (peptide)
IC50 (µM), Nt-acetylation inhibition [2]: 1.46 µM
fold more potent towards NatA than all the other NATs tested [3]: > 100 fold
Ki [4]: 132 µM
Ki [5]: 41.9 µM
Ki [6]: 17.7 µM
Ki [7]: 3.1 µM
Ki [8]: 41.6 µM
Ki [9]: 0.143 µM
Ki [10]: 98.9 µM

Molecule: CC[C@H](C)[C@H](NC(=O)[C@H](CCC(=O)O)NC(=O)[C@H](CCC(=O)O)NC(=O)[C@H](CCC(=O)O)NC(=O)CSCCNC(=O)CCNC(=O)C(O)C(C)(C)COP(=O)(O)OP(=O)(O)OCC1OC(n2cnc3c(N)ncnc32)C(O)C1OP(=O)(O)O)C(N)=O (some centres unmarked) [CoA-Ac-EEEI-NH2]
IC50 [11]: 1.16 µM
IC50 [12]: 10.1 µM

Molecule: CoA-Ac-MLG7: Previously disclosed bisubstrate analogue inhibitor of NatE/hNaa50 (SEQ ID NO: 49), Foyn 2013 ({CoA-Ac′}-MLGPEGG)
IC50 [15]: 1.29 µM

Continued, values first:

Product formation [13]: 119 (±5.61) μM
higher product formation compared to second best substrate MDDD24 [14]: 5 fold
Molecule: MDEL24: 24-mer substrate peptide: N-terminal MDELFPL (SEQ ID NO: 45) plus constant RWGRPVGRRRRPVRVYP (MDELFPLRWGRPVGRRRRPVRVYP)

fold more potent than CoA-Ac-EEEI-NH2 (IC50) [16]: 3 fold
fold more potent than CoA-Ac-MDEL-NH2 (IC50) [16]: 3.3 fold
IC50 (µM), Nt-acetylation inhibition [17]: 0.38 µM
fold reduced potency for Naa10 compared to Naa80 [18]: 88 fold
Ki [19]: 0.043 µM
Molecule: {CoA-Ac}-DDDI-NH2 [CoA-Ac-DDDI-NH2]
